Here are results for one molecule from US20200297862A1 (Zymeworks, published 2020).

The target in assay [1] is T1, Recombinant human HER2 (human, UniProt P04626 23-652).
T1 construct: extracellular domain
The assay can be described thus: SPR as in Example 12, one-armed antibody, pre-SEC, against v10013.

For assay [2], the target named is T1, Recombinant human HER2. In words: SPR as in Example 12, one-armed antibody, post-SEC, against v10013.

B1: Variant 10014 (antibody, name in Kabat numbering, V domains shown)
VH: EVQLVESGGGLVQPGGSLRLSCAASGFTFADYTMDWVRQAPGKGLEWVADVNPNSGGSIYNQRFKGRFTLSVDRSKNTLYLQMNSLRAEDTAVYYCARNLGPSFYFDYWGQGTLVTVSS
VL: DIQMTQSPSSLSASVGDRVTITCKASQDVSIGVAWYQQKPGKAPKLLIYSASYRYTGVPSRFSGSGSGTDFTLTISSLQPEDFATYYCQQYYIYPATFGQGTKVEIK
notes: also called v10014; OAA variant
Turning to B1, the “Fold wrt WT (KD(WT)/KD(mut))” value in assay [1] was 8.1 fold; in assay [2], 7 fold.
